Experimental data from patent US9035028B2, “Temperature sensitive conjugate compositions” (Emory University, priority 2010, dated 2015).

How the values were obtained:
[1] = tested on: human platelets; test: Flow cytometry: platelet activation (PAC-1 binding, P-selectin expression); assay type: cell-based; conditions: human diluted PRP, 22° C.
Experimental: Effects of EMP-scFv on platelet activation were addressed by incubating human diluted PRP with 15 and 50 μg/mL of EMP-scFv at 22° C. for 15 minutes, followed by the addition of either PAC-1 or CD62P antibodies and in-dark incubation for 15 minutes. The reactions were fixed and levels of PAC-1 binding and P-Selectin expression analysed in FACS.

[2] = target: T1, GPIIb/IIIa on mouse platelets (Mus musculus, UniProt O54890+Q9QUM0); test: Flow cytometry: binding to mouse platelets
T1 construct: endogenous in cells
T1 sequence (Q9QUM0 32-1033): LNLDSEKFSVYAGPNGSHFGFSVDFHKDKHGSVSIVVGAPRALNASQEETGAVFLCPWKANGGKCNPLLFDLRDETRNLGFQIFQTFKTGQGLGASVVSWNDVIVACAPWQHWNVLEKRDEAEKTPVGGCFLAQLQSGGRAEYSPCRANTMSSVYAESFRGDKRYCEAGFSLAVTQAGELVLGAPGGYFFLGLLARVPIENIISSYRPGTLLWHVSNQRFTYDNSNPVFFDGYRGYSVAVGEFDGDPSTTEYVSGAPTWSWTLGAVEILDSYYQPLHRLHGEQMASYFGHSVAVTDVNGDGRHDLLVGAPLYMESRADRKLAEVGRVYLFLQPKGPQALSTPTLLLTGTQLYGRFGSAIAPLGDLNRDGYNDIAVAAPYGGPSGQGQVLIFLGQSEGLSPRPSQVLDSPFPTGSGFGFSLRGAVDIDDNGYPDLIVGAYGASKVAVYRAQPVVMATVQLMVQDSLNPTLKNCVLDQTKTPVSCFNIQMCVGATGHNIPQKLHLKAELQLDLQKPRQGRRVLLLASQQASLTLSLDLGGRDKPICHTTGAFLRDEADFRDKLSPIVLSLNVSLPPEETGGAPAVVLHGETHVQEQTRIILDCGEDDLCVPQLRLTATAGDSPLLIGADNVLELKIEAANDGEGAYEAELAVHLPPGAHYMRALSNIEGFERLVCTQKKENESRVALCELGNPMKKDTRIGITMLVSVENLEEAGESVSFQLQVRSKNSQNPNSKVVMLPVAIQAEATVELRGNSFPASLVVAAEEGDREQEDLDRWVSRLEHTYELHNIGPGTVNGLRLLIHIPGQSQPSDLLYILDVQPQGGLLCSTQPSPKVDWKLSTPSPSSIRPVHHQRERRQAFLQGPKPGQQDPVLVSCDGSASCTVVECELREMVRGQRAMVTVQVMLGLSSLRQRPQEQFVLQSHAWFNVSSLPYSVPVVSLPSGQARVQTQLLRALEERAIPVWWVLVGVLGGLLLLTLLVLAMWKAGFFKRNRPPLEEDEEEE
T1 sequence (O54890 26-787): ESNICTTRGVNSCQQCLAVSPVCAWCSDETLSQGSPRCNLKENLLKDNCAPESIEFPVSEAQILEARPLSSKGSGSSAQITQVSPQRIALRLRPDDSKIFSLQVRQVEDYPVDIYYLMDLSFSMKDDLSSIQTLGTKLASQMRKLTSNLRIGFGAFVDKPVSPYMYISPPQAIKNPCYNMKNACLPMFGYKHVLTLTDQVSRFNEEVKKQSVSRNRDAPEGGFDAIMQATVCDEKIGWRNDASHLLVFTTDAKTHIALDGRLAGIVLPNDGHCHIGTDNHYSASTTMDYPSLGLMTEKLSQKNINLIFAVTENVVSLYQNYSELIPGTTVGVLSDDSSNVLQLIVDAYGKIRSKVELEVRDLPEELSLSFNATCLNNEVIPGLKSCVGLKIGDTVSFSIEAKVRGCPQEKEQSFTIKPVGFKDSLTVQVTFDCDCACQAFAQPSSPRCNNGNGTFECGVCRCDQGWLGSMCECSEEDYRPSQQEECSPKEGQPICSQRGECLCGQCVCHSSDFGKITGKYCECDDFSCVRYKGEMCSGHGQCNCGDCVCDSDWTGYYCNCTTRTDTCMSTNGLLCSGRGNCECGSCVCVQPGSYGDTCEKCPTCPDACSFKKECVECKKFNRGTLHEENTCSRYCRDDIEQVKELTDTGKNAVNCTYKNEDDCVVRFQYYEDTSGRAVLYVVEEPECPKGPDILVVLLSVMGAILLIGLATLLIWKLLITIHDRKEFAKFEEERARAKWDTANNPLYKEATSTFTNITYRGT
Experimental: (§1) Mouse blood was collected by intracardiac puncture with a 27-gauge needle from C57BL/6 mice and anticoagulated with non-fractionated heparin (20 U/mL). A volume of 50 μl was washed with 1 mL modified Tyrode's buffer (150 mM NaCl, 2.5 mM KCl, 1.2 mM NaHCO3, 0.1% BSA, 0.1% Glucose) and centrifuged at 1200×g for 6 min. The supernatant was discarded and the pellet was resuspended in 1 mL modified Tyrode's buffer containing 2 mM MgCl2 and 2 mM CaCl2.
(§2) Human PRP was diluted 1/50 in modified Tyrode's buffer containing 2 mM MgCl2 and 2 mM CaCl2. Platelets were either activated by addition of 20 μM ADP, or non activated, followed by the incubation with 15 and 50 μg/mL EMP-scFv fusion protein or EMP at 22° C., 32° C. and at 37° C. for 15 min. Mouse platelets were either pre-activated for 10 min by addition of 0.1 U/mL thrombin (Enzyme Research Laboratories), or non activated, before the incubation with 15 and 50 μg/mL of EMP-scFv fusion protein at 22° C., 32° C. or 37° C. for 15 min. In both, human and mouse samples, EMP-scFv was detected via 15 min in-dark incubation with secondary antibody (Penta-His Alexa Fluor 488, Qiagen) directed against the His(6)-tag of the single-chain antibody.

[3] = tested on: human platelets; test: 96-well plate light transmission aggregometry, ADP-driven platelet aggregation; assay type: cell-based; conditions: 22° C.
Experimental: Light transmission aggregometry was performed using a Biorad Benchmark plate reader. After incubation of human PRP with EMP-scFv (15 μg/mL), vehicle (PBS) or the GPIIb/IIIa blocker abciximab (10 μg/mL) (Reopro®, Eli Lilly, Indianapolis, U.S.A.) for 10 minutes at different temperatures, the aggregation was induced by the addition of 2 or 20 μM ADP with vigorous stirring in a 96-well plate. The absorbance was determined at 595 nm every 15 seconds for 16 minutes between vigorous shaking at 22° C. and 37° C.

[4] = target: T1, GPIIb/IIIa on mouse platelets; test: Flow cytometry: inhibition of fibrinogen binding to mouse platelets; assay type: cell-based
Experimental: as §1, §2
Fibrinogen binding to human activated platelets in the presence of EMP-scFv was determined with a polyclonal rabbit anti-human fibrinogen FITC-labelled antibody (DakoCytomation), while the effects of EMP-scFv on fibrinogen binding to mouse platelets were determined using FITC-conjugated rabbit anti-fibrinogen polyclonal antibody (Cemfret). Fluorescence detection was performed as described above. Samples were measured in a FACSCalibur® flow cytometer (Becton Dickinson), after fixation with 1× CellFIX® (Becton Dickinson).

[5] = tested on: platelet aggregates; test: Flow chamber: binding to platelet aggregates under physiological flow; assay type: cell-based; conditions: hypothermic temperatures
Experimental: Temperature-dependent binding of EMP-scFv to platelet aggregates was analysed using a flow chamber system. Vitrotubes rectangular capillaries (0.20×2.0 mm) were washed with 70% ethanol, dried, and coated overnight with 10 μg/ml of collagen (Collagen Reagent Horm Nycomed). Liquid was entered into the capillary via capillary drag. Capillaries were blocked for 1 hour with 1% BSA and then washed with PBS. The capillary was connected on the one end to a reservoir and on the other end to a Harvard medical pump by tubing. Before connecting the capillary all tubes were flushed with PBS in order to avoid air bubbles entering the capillary. PRP was then drawn into the capillary and numerous platelet aggregates were formed within 10 minutes. The capillary was then washed with PBS via the pump. In the meantime, the EMP-scFv (50 μg/mL) was incubated with PENTA-HIS Alexa Fluor 488 (Qiagen) antibody for 10 minutes in a final volume of 1 mL, and then drawn into the capillary containing platelet aggregates at physiological flow rate of 60s^−1. The capillary was then imaged with a 20× magnification objective, after which DIC and fluorescent images were captured using Olympus IX81 microscope with XM10 camera. The experiments were conducted at 22° C. and 37° C.

[6] = Circular dichroism (CD) spectra and thermal transition profile; assay type: physicochemical
Experimental: The mathematical fitting of the CD data allowed the determination of the transition temperature (Tt) resulting from conformational change of EMP as the temperature is increased. The mathematical fitting of the CD data to the van't Hoff equation allowed the determination of the transition temperature (Tt) resulting from conformational change of EMP and EMP-scFv as the temperature is increased.
Circular dichroism (CD) spectra were recorded on a Jasco J-810 spectropolarimeter equipped with a PFD-425S Peltier temperature control unit in 0.1 cm sealed quartz cells at concentrations of 7.5 μM (EMP), 8.4 μM (scFv) and 4.1 μM (EMP-scFv) in 50 mM sodium phosphate buffer, pH 7.4. Temperature/wavelength CD-scans were performed within the temperature range from 5° C. to 35° C. with equilibration for 10 min at each temperature. Spectra were obtained from 260 to 190 nm at a resolution of 0.5 nm and at a scanning speed of 50 nm/min. The CD curves represented the average of five measurements and were smoothed using the means-movement method on the interval analysis of the spectral manager program. CD data are reported as mean residue ellipticity ([θ], deg cm^2 dmol^−1). Thermal transition curves were plotted by the mean residue ellipticity as a function of temperature for the disappearance of the random coil and the appearance of the β-turn structure.

[7] = tested on: activated human platelets; test: Microscopic analysis of platelet aggregates; assay type: cell-based; conditions: 22° C.
Experimental: For the microscopic analysis of platelet aggregates at different temperatures, non-diluted human PRP was placed onto a glass slide and ADP was added to a final concentration of 20 μM, in the presence and absence of EMP-scFv (50 μg/mL). Abciximab was used as a positive control at a concentration of 10 μg/mL. The experiments were conducted at 22° C. and 37° C. Phase contrast microscopy images were taken using an Olympus CKX41 microscope.

B1: EMP-scFv: fusion of elastin mimetic polypeptide (EMP) and activation-specific GPIIb/IIIa-blocking single-chain antibody; 704 amino acids, approximately 70 kDa (protein)
chain: MAVPAVGIPAVGIPAVGIPAVGIPAVGIPAVGIPAVGIPAVGIPAVGIPAVGIPAVGIPAVGIPAVGIPAVGIPAVGIPAVGIPAVGIPAVGIPAVGIPAVGIPAVGIPAVGIPAVGIPAVGIPAVGIPAVGIPAVGIPAVGIPAVGIPAVGIPAVGIPAVGIPAVGIPAVGIPAVGIPAVGIPAVGIPAVGIPAVGIPAVGIPAVGIPAVGIPAVGIPAVGIPAVGIPAVGIPAVGIPAVGIPAVGIPAVGIPAVGIPAVGIPAVGIPAVGIPAVGIPAVGIPAVGIPAVGIPAVGIPAVGIPAVGIPAVGIPAVGIPAVGIPAVGIPAVGIPAVGIPAVGIPAVGIPAVGIPAVGIPAVGIPAVGIPAVGIPAVGIPAVGIPAVGIPAVGIPAVGIPAVGIPGGGGSMMAEVQLVESGGGLVQPGGSLRLSCAASGFMFSRYAMSWVRQAPGKGPEWVSGISGSGGSTYYADSVKGRFTVSRDNSKNTLYLQMNSLRAEDTAVYYCARIFTHRSRGDVPDQTSFDYWGQGTLVTVSSGSASAPKLEEGEFSEARVSSELTQDPAVSVALGQTVRITCQGDSLRNFYASWYQQKPGQAPTLVIYGLSKRPSGIPDRFSASSSGNTASLTITGAQAEDEADYYCLLYYGGGQQGVFGGGTKLTVLRQPKAAPSVTLFPPSSAAAGSEQKLISEEDLNSHHHHHH
Question: Which results are given for B1?
Answer: platelet activation: P-selectin expression [1]: no effect; platelet activation: binding of PAC-1 [1]: no effect; binding to activated murine platelets ([2]; 22° C., mouse whole blood): binds; binding to resting mouse platelets ([2]; either 22° C. or 37° C.): did not bind; ADP-driven platelet aggregation [3]: effective inhibition; fibrinogen binding to activated mouse platelets ([4]; 22° C.): significant decrease; fibrinogen binding to activated mouse platelets ([4]; 32° C.): inhibit the binding of fibrinogen; fibrinogen binding to activated mouse platelets ([4]; 37° C.): did not affect; binding to platelet aggregates under flow [5]: induced binding; transition temperature (Tt), disappearance of the random coil ([6]; CD data at 200 nm): 15 °C; transition temperature (Tt), appearance of the β-turn structure ([6]; CD data at 215 nm): 28 °C; temperature at which structural change and hydrophobic collapse were completed ([6]; thermal transition curve): higher than 35 °C; aggregation of activated human platelets (microscopy) [7]: inhibited aggregation
